Measurements taken from the supplement of paper PMC9732359.
± gives the uncertainty stated by the source.

Assay: protein stability index of a GFP-peptide fusion (yeast GPS) (PSI 1-4); higher = more stable; sorted into four equal gates, so the index is relative within each strain
Summary of the method: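 Plasmids isolated from each sorting gate were PCR-amplified and Illumina-sequenced, and barcodes assigned the reads to strains. The gates, four of equal size, were set by GFP/Cherry fluorescence ratio on mid-log cultures in leucine-free medium. These cultures were yeast carrying a pooled library of tiled 17-residue yeast protein peptides fused downstream of GFP on a plasmid that also expresses Cherry. The protein stability index is the sum of every gate's read frequency times its gate number.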

Row | Sequence | protein stability index (doa10∆) | protein stability index (pdr5∆) | protein stability index (san1∆) | protein stability index (ubr1∆)
1 | IVFVHSRKETSRTATWL [BRR2] | 2.53 ± 0.11 | 2.67 ± 0.12 | 2.57 ± 0.21 | 2.89 ± 0.077
2 | LESEAQKKATMSAEEAL [RPC34] | 3.13 ± 0.096 | 3.26 ± 0.14 | 3.04 ± 0.092 | 3.58 ± 0.12
3 | YLNDLMITKRILEVGAL [RPN12] | 1.29 ± 0.16 | – | – | –
4 | KGKDFEITAKEVYDFTH [FAS1] | 3.09 ± 0.059 | 3.23 ± 0.055 | 2.97 ± 0.052 | 3.05 ± 0.046
5 | VSITDAPKIHILDPSTE [YMR129W/POM152] | 1.56 ± 0.055 | 1.95 ± 0.056 | 1.53 ± 0.061 | 1.54 ± 0.061
6 | KKVVKKAFEERHQAGKN [RPL27A] | – | 3.83 ± 0.22 | – | –
7 | NDEPSHKKIKVAQPDSL [SIR2] | 2.32 ± 0.079 | 2.31 ± 0.071 | 1.63 ± 0.1 | 3.19 ± 0.055
8 | GTILSSAGDDGKVRLWK [YGL100W/SEH1] | 3.27 ± 0.12 | 3.51 ± 0.1 | 3.49 ± 0.053 | 3.38 ± 0.059
9 | SECIVSIKSKVVDHHVE [RRP42] | 3.04 ± 0.066 | 3.08 ± 0.08 | 2.71 ± 0.14 | 3.04 ± 0.067
10 | ISNNLALVFAALEHLKN [SRP68] | 1.95 ± 0.051 | 1.8 ± 0.041 | 2.12 ± 0.052 | 2.09 ± 0.041
11 | DKYKLYPVRIPRLDTSK [YJR042W/NUP85] | 3.01 ± 0.075 | 2.9 ± 0.075 | 3.12 ± 0.059 | 3.24 ± 0.065
12 | IILPLDNATLTELVDKA [SSN2] | 2.54 ± 0.11 | 3.16 ± 0.15 | 2.6 ± 0.099 | 1.95 ± 0.26
13 | YYGCLENDHERGFFHLN [CSN12] | 3.14 ± 0.063 | 3.24 ± 0.068 | 3.21 ± 0.047 | 3.26 ± 0.044
14 | DYNLRIYCYFLIMKLGR [SSN8] | 1.23 ± 0.084 | 1.12 ± 0.098 | 1.36 ± 0.29 | 1.39 ± 0.11
15 | LILTSHNMKAYYKKFLI [BRR2] | – | – | – | 2.54 ± 0.14
16 | TQLQICLDQMTEQFCAT [SRB7] | 2.74 ± 0.063 | 2.88 ± 0.065 | 2.54 ± 0.08 | 2.52 ± 0.052
17 | MSTFIFPGDSFPVDPTT [RRP40] | 2.17 ± 0.11 | 2.06 ± 0.092 | 2.35 ± 0.068 | 2.35 ± 0.074
18 | LTADYDALDIANRIGYI [RPL25] | 3.33 ± 0.045 | 3.4 ± 0.062 | 3.54 ± 0.038 | 3.43 ± 0.052
19 | TTVSNDLENSPLKTELE [SSN2] | 3.05 ± 0.13 | 3.16 ± 0.096 | 3.16 ± 0.072 | 3.19 ± 0.082
20 | VHPFHVLRINKMLSCAG [RPL10] | 1.11 ± 0.086 | 1.21 ± 0.075 | 1.21 ± 0.092 | 1.05 ± 0.06
21 | NQPHQSQTPSFNTNSSF [YOR098C/NUP1] | 2.64 ± 0.042 | 2.99 ± 0.034 | 2.93 ± 0.036 | 3.047 ± 0.03

Row | Sequence | protein stability index (doa10∆) | protein stability index (pdr5∆) | protein stability index (san1∆) | protein stability index (ubr1∆)
22 | ETDDNIETVMTQEQFVK [SRB4] | – | 3.23 ± 0.17 | 2.6 ± 0.2 | –
23 | IPSPLSSTKPPGSVNSA [NUT1] | 2.76 ± 0.056 | 2.84 ± 0.058 | 2.86 ± 0.076 | 2.85 ± 0.044
24 | LASKIKQYERLRFYKDT [RRI1] | 2.63 ± 0.068 | 2.52 ± 0.062 | 1.97 ± 0.077 | 2.19 ± 0.08
25 | KENEESLTPTQSDSAKV [PRP28] | 3.13 ± 0.088 | 3.35 ± 0.063 | 2.9 ± 0.095 | 3.11 ± 0.053
26 | NQVGTDELILPLPSHAL [YDL116W/NUP84] | 3.09 ± 0.057 | 3.09 ± 0.045 | 2.83 ± 0.052 | 3.06 ± 0.04
27 | PSTNKKLSISNAASQQP [GAL11] | 2.48 ± 0.084 | 2.8 ± 0.066 | 2.56 ± 0.072 | 2.74 ± 0.075
28 | HTEDESTKELKFSDIIQ [BRN1] | 3.11 ± 0.2 | 2.89 ± 0.21 | 3.23 ± 0.22 | 3.41 ± 0.094
29 | ESVELPLTHPELYEEMG [RPT2] | 2.63 ± 0.077 | 2.94 ± 0.074 | 2.78 ± 0.07 | 2.74 ± 0.037
30 | GQFVTLGCTLVTLLANV [RMP1] | 2.8 ± 0.11 | 2.89 ± 0.11 | 2.73 ± 0.1 | 2.58 ± 0.048
31 | SQSQQKLLKEKVKLFHG [MED2] | 3.1 ± 0.091 | 3.1 ± 0.093 | 3.07 ± 0.057 | 2.81 ± 0.08
32 | DIRDSSCQGNVIYRNSL [YMR129W/POM152] | 3.5 ± 0.22 | 3.21 ± 0.087 | 3.38 ± 0.06 | 3.37 ± 0.084
33 | KEAFEEEIKQSARNYDK [SMC1] | 3.21 ± 0.078 | 3.09 ± 0.082 | 3.06 ± 0.051 | 3.31 ± 0.056
34 | AWGALITTFVKRSTVPL [YML103C/NUP188] | 2.46 ± 0.07 | 2.88 ± 0.072 | 2.49 ± 0.076 | 2.33 ± 0.12
35 | DSSSVSEDSAVFKATSS [FAS1] | 3 ± 0.089 | 3.32 ± 0.096 | 2.98 ± 0.065 | 3.14 ± 0.083
36 | YRLMIKRLNFSFVGDYM [GRR1] | 2 ± 0.065 | 1.41 ± 0.052 | 1.53 ± 0.095 | 1.51 ± 0.054
37 | INYHQYISKAQNDQWSI [SSN2] | 2.63 ± 0.058 | 2.83 ± 0.053 | 2.56 ± 0.051 | 2.73 ± 0.056
38 | DIFGANAASGSNSNVTN [YOR098C/NUP1] | 2.11 ± 0.064 | 1.65 ± 0.054 | 1.64 ± 0.11 | 2.63 ± 0.079
39 | DLSLIVKARHGGCDYIF [CYT1] | 2.74 ± 0.097 | 2.94 ± 0.1 | 2.72 ± 0.1 | 2.46 ± 0.061
40 | SIREDILECDLLICIGT [SIR2] | 2.45 ± 0.058 | 2.15 ± 0.058 | 2.78 ± 0.055 | 2.39 ± 0.052
41 | SSIENNINNNINSTKNG [MED2] | 2.85 ± 0.081 | 3.11 ± 0.093 | 2.88 ± 0.084 | 3.17 ± 0.063
